Laboratory results: publication PMC7021776, “Heme binding of transmembrane signaling proteins undergoing regulated intramembrane proteolysis” (Communications Biology, 2020)

B1: MBP-TNFα-NTF(1–76) (domain or fragment, human, UniProt P01375 1-76, looked up)
chain: MSTESMIRDVELAEEALPKKTGGPQGSRRCLFLSLFSFLIVAGATTLFCLLHFGVIGPQREEFPRDLSLISPLAQA
notes: also called TNFα-NTF(1–76) wt; MBP-TNFα(1–76); source: E. coli NEB Express (pMalC5X), membrane fraction solubilised with Triton X-100, purified (amylose); not shown: MBP, N-terminal, kept
B2: TNFα-NTF(1–51) (domain or fragment, human, UniProt P01375 1-51, looked up)
chain: MSTESMIRDVELAEEALPKKTGGPQGSRRCLFLSLFSFLIVAGATTLFCLL
notes: The text names it without MBP; source: E. coli NEB Express (pMalC5X), membrane fraction solubilised with Triton X-100, purified (amylose); not shown: MBP, N-terminal, kept
B3: TNFα-NTF(1–47) (domain or fragment, human, UniProt P01375 1-47, looked up)
chain: MSTESMIRDVELAEEALPKKTGGPQGSRRCLFLSLFSFLIVAGATTL
notes: as for B2

Molecular target: the molecule itself
Assay: SEC; gel filtration of purified MBP fusion proteins, Superose 6 Increase 10/300 GL, 4 °C, TN buffer (50 mM Tris/HCl pH 7.4, 150 mM NaCl) with 0.1% Triton X-100; growth medium with or without δ-aminolevulinic acid

Protein	stoichiometry N	binding result
B1	3	
B2		binds
B3	2	
